In article doi:10.1101/2023.07.25.550521:

Assays:
[1] = biological target: MADD (DENN/MADD, RAB3-GEP) (UniProt Q8WXG6); experiment: GFP-Trap co-IP, HA blot; conditions: reference: wild type; sites T86
RAB-GDI1 = RAB-GDI1 (UniProt P31150); experiment: GFP-Trap co-IP, RAB-GDI1 blot; conditions: reference: wild type; sites T86

RAB3A (from UniProt P20336) T86A
binding against the reference [1]: stronger
binding against the reference (RAB-GDI1): stronger
